The results in this text go back to paper PMC7717172.

This experiment deals with inactive Minerva virus protease (norovirus GII.4 NS6 protease, C139A) (norovirus GII.4 (Minerva virus)). As to the kind of experiment: crystal structure.

Turning to “inactive Minerva virus protease (norovirus GII.4 NS6 protease, C139A) (enzyme)”, the stoichiometry N was 2.

The stoichiometry N is the number of molecules, sites or subunits per partner or assembly.
